Values quoted from earlier work in PMC7005313.

Molecular target: Tyr99 (UniProt position 100, KDGNGYISAAE)
Assay: fluorescence
Settings: not stated (the title of the cited paper refers to calcium and pH dependence)

Calmodulin (bovine testes) (Bos taurus)
pKa: as low as 7.0
